{
  "source": "patent US20070196883A1",
  "about": "“ENZYME” (UNIVERSITY OF DUNDEE, priority 1999, published 2007)",
  "key": {"[1]": {"biological_target": "T1, endogenous PDK1 associated with GST-PIF (Homo sapiens, UniProt O15530)", "T1 construct": "endogenous in cells; host or cells: 293 cells transfected with pEBG2T GST-PIF; endogenous PDK1 co-purified on glutathione-Sepharose", "T1 sequence (Q16513 908-984 partner limits assumed, one chain of several)": "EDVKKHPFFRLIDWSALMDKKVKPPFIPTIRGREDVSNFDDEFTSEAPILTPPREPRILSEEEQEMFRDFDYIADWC", "assay": "Dissociation of endogenous PDK1 from purified GST-PIF by peptide", "format": "binding", "settings": "peptide 100 μM, GST-PIF purified from 293 cells", "source_text": "In contrast, a mutant peptide in which the residue corresponding to Asp978 was changed to Ala (termed “D978A-Region B peptide”) interacted with PDK1>fold 10-less strongly (FIG. 13)."}, "His-PDK1": {"biological_target": "T2, His-PDK1 (Homo sapiens, UniProt O15530)", "T2 construct": "made in house; host or cells: Sf21 insect cells (baculovirus, pFASTBAC HTb)", "T2 sequence (O15530 1-556)": "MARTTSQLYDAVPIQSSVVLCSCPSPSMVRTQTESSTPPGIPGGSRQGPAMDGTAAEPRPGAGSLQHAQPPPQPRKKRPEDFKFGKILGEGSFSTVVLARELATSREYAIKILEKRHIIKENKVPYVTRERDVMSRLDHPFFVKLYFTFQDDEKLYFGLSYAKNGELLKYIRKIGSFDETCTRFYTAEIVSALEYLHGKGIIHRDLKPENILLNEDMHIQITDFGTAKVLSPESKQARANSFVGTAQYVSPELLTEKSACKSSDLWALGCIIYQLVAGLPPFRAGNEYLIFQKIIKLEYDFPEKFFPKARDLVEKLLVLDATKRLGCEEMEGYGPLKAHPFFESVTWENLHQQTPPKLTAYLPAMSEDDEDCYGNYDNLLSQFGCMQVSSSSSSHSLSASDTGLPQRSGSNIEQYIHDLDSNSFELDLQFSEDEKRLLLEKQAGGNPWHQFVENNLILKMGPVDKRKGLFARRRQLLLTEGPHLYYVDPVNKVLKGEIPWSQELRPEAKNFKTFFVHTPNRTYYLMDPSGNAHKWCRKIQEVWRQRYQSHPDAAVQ", "assay": "Conversion of His-PDK1 into a Ser473 PKBα kinase by synthetic peptide (P-Ser473 immunoblot)", "format": "biochemical", "settings": "peptide at 20 µM, 3-phosphoinositide vesicles, MgATP", "protocol": "FIG. 6. Conversion of PDK1 into an enzyme that can phosphorylate both Thr308 and Ser473 of PKB by addition of a synthetic peptide. […] After allowing to stand for 1 h at 4° C. GST-PKBα, MgATP and the indicated phospholipid vesicles containing 100 μM PtdCho, 100 μM PtdSer, and either 10 μM sn-1-stearoyl-2-arachidonoyl-D-PtdIns(3,4,5)P3 (1,2-SAD-PtdIns(3,4,5)P3), or sn-1,2 di-palmitoyl-D-PtdIns(3,4,5)P3 (C16-PtdIns(3,4,5)P3) or sn-1,2 di-palmitoyl-D-PtdIns(3,4)P2 (C16-PtdIns(3,4)P2) were added. After 1 h at 30° C., the reactions were terminated by making the solutions 1% in SDS, the samples were subjected to SDS/polyacylamide gel electrophoresis and immunoblotted using P-Ser473 antibody. Identical results were obtained in 2 separate experiments. […]\nPhosphorylation of GST-PKBα by incubation with GST-PIF. In experiments in which the phosphorylation of PKBα was determined using the phospho-specific Ser473 PKBα antibodies, the incubations were identical to the Stage 1 described above except that the reactions were terminated by the addition of 1% (by mass) SDS and immunoblotting is carried out as described below. In experiments in which the sites of phosphorylation on PKBα are determined the incubations were identical to the Stage 1 described above except [γ^32P] […]"}},
  "data": [
    {"substance": "D978A-Region B peptide: mutant peptide in which the residue corresponding to Asp978 was changed to Ala (REPRILSEEEQEMFRDFAYIADWC)", "values": [
      {"measurement": "dissociation of the endogenous PDK1 from GST-PIF", "setting": "[1]", "result": "incapable of inducing the dissociation"},
      {"measurement": "inducing His-PDK1 to phosphorylate PKBα at Ser473", "setting": "His-PDK1", "result": "far less effective"}
    ]}
  ]
}
